This is an account of results in paper PMC11643483, “Chip-Scale Aptamer Sandwich Assay Using Optical Waveguide-Assisted Surface-Enhanced Raman Spectroscopy”.

The series concerns the target cardiac troponin I (cTnI) (UniProt P19429 2-210). The series is described as follows: SERS aptamer sandwich assay on waveguide; 1 ng/mL cTnI stock (25 uL mixed with 50 uL reporter NPs); sandwich with N2-AuNP; no cTnI-free control described; aptamer-AuNPs resuspended in PBS; cTnI incubated 30 min with reporter NPs, then 1 h on waveguide, rinsed with buffer; pH and temperature not stated. The settings on record: protein: commercial.

Sequence of cardiac troponin I (cTnI) (P19429 2-210): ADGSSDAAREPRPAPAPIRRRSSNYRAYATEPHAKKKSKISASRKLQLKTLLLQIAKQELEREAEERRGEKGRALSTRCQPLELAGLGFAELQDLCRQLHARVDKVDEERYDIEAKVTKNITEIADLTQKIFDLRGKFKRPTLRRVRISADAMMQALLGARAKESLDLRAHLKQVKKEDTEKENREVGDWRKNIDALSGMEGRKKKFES

For CGTGCAGTACGCCAACCTTTCTCATGCGCTGCCCCTCTTA (ssDNA, 5'-amine-spacer 18-spacer 18) [primary (capture) aptamer], the binding result is reported as “binds”.
